Reference: patent publication US6458943 (INSTITUT NATIONAL DE LA SANTE ET DE LA RECHERCHE MEDICALE, dated 2002)

Key:
[1] = molecular target: T1, eukaryotic initiation factor 4AII library interactor (pAD-GAL4 construct, DNA Database of Japan accession no. … (human, UniProt P04386 761-881; Q14240 1-407, limits assumed); experiment: yeast two-hybrid, retransfection of Hf7c
T1 construct: False positive of the Hf7c screen
Description: (§1) Transformants were plated onto solid SD/-His-Trp-Leu (incorporating 35 mM 3-AT in the case of Y190 transformants) and incubated for up to 14 days at 30° C. After 3 initial days of growth, plates were inspected daily, and His+ colonies were transferred to SD/-His-Trp-Leu +0.07 M potassium phosphate pH 7+40 µg/ml X-gal plates which incorporated 35 mM 3-AT in the case of Y190 co-transformants. Colonies which remained His+, and in the case of Y190 co-transformants, were also lacZ+, were re-streaked onto fresh plates to check that all colonies were of uniform phenotype. After 6 days incubation at 30° C., yeast colonies were directly harvested, and plasmid DNA was isolated and used to transfect XL1 Blue. Mini-preparations of plasmid DNA were performed for at least 5 XL1 Blue colonies per transfection, with the results of restriction digests differentiating potential interactors from bait plasmids. […] Phenotypes of resulting co-transfectants were assayed quantitatively and/or qualitatively as described above.

[2] = molecular target: T2, histidyl t-RNA synthetase library interactor (pAD-GAL4 construct, EBML accession no. Z 11518) (human, UniProt P04386 761-881; P12081 2-509, limits assumed); experiment: yeast two-hybrid, retransfection of Hf7c
T2 construct: False positive of the Hf7c screen
T2 sequence (looked up): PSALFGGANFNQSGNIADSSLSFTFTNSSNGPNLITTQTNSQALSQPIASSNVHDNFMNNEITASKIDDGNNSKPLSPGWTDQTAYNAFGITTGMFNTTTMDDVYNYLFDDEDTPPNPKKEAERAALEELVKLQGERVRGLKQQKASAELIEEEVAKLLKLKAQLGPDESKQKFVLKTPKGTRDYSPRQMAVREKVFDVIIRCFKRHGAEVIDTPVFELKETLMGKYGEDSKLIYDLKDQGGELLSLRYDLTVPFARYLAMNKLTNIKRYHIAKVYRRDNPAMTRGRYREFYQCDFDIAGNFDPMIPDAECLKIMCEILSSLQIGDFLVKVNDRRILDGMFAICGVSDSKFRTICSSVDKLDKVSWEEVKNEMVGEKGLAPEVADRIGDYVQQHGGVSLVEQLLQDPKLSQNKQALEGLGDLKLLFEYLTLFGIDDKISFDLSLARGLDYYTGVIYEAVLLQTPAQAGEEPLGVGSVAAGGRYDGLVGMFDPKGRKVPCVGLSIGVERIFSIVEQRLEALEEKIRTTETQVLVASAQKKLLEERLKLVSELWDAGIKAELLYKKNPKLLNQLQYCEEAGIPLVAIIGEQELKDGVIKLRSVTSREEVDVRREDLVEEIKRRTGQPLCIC
Description: as §1

[3] = molecular target: T3, RING10 proteasome subunit library interactor (pAD-GAL4 construct, GenBank accession no. X62598) (human, UniProt P04386 761-881; P28062 73-276, limits assumed); experiment: yeast two-hybrid, retransfection of Hf7c
T3 construct: False positive of the Hf7c screen
T3 sequence (looked up): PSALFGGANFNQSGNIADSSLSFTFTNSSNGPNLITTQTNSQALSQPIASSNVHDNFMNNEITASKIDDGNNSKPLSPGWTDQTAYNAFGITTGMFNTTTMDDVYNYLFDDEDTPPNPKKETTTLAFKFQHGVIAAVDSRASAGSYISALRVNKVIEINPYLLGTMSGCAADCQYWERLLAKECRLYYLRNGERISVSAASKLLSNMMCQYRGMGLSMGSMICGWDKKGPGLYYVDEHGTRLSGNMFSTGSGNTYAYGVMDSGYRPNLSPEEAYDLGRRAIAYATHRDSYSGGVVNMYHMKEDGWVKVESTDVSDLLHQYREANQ
Description: as §1

[4] = molecular target: T4, hD53 interactor (GAL4 activation domain fusion, pACT2hD53) (human, UniProt P04386 768-881 (Saccharomyces cerevisiae entry)); experiment: yeast two-hybrid in Y190, β-galactosidase assay
T4 construct: range 768-881
T4 sequence: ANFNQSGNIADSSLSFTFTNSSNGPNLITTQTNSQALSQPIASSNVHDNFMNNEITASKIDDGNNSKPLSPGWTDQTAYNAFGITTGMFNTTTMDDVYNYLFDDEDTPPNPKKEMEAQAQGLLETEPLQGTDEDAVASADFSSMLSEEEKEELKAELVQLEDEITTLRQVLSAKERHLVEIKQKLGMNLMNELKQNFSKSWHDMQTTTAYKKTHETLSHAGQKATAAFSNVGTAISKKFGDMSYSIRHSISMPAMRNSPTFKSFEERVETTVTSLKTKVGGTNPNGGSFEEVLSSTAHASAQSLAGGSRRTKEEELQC
Description: Interactions between baits and interactors were assessed by qualitatively and/or quantitatively determining HIS3 and lacZ reporter gene activity in Y190 co-transfectants. Reporter gene activities were assessed qualitatively by observing the growth and color development of Y190 co-transfectants on solid SD media lacking His, Trp and Leu (SD/-His-Trp-Leu), and incorporating 0.07 M potassium phosphate pH 7, 35 mM 3-AT, and 40 µg/ml X-gal. For quantitative assessment of interactions, β-galactosidase activity was measured using the substrate o-nitrophenyl β-D-galactopyranoside (ONPG) in liquid cultures (SD/-His-Trp-Leu +35 mM 3-AT) of Y190 co-transfectants.

Measured: binding result

B1: mD52(95-185) bait (GAL4 DNA-binding domain fusion, pAS2-1mD52(95-185)) (other)
chain: MKLLSSIEQACDICRLKKLKCSKEKPKCAKCLKNNWECRYSPKTKRSPLTRAHLTEVESRLERLEQLFLLIFPREDLDMILKMDSLQDIKALLTGLFVQDNVNKDAVTDRLASVETDMPLTLRQHRISATSSSEESSNKGQRQLTVSAYKKTSETLSQAGQKASAAFSSVGSVITKKLEDVKNSPTFKSFEEKVENLKSKVGGAKPAGGDFGEVLNSTANATSTMTTEPPPEQMTESP
notes: also called C-terminal half of mD52
no binding: all assays above
